Data on one molecule can be found in patent US12624075B2, “Immune inducer” (TORAY INDUSTRIES, INC., priority 2015, dated 2026).

In assay [1] the test system is HLA-A0201-positive CD8-positive T cells. Description: IFN-γ-producing ability of HLA-A0201-positive CD8-positive T cells against polypeptide-pulsed dendritic cells (ELISA). The class given is cell-based, human. To be noted: dendritic cells expressing HLA-A0201 pulsed with 10 μg/mL polypeptide, 24 hours, FIG. 2. As for the experimental part: Peripheral blood was separated from the blood of an HLA-A0201-positive healthy individual. The peripheral blood was layered on Lymphocyte separation medium (Organon Teknika Corporation, Durham, NC), and then centrifuged at 1,500 rpm at room temperature for 20 minutes. A PBMC-containing fraction was collected and washed 3 times (or more) with a cold phosphate buffer solution to obtain PBMCs. The thus obtained PBMCs were suspended in 20 mL of AIM-V medium (manufactured by Life Technologies, Inc.), and allowed to adhere to a culture flask (manufactured by Falcon Plastics Co.) for 2 hours under the conditions of 37° C. and 5% CO2. Non-adherent cells were used for the preparation of T cells, and adherent cells were used for the preparation of dendritic cells.
The adherent cells were cultured in AIM-V medium in the presence of IL-4 (1,000 U/ml) and GM-CSF (1,000 U/ml). Six days later, the medium was replaced with AIM-V medium supplemented with IL-4 (1,000 U/mL), GM-CSF (1,000 U/mL), IL-6 (1,000 U/mL, manufactured by Genzyme Corporation), IL-1B (10 ng/ml, manufactured by Genzyme Corporation) and TNF-α (10 ng/ml, manufactured by Genzyme Corporation), and the cells were cultured for another 2 days. The resulting population of the non-adherent cells was used as the dendritic cells.
The thus prepared dendritic cells were suspended in AIM-V medium at a cell density of 1×10^6 cells/mL. […]

Another assay concerns 14 types of cancer cells. Briefly: Direct exposure of cancer cells to the polypeptides (direct killing). The class given is cell-based, human. Conditions: cancer cells exposed to the polypeptides or protein without T cells.

B1: full-length PDS5A protein: human PDS5A protein of 1337 amino acid residues, prepared according to Example 5 in WO 2011/027807; Comparative Example (protein, listed as Homo sapiens)
chain: MDFTAQPKPATALCGVVSADGKIAYPPGVKEITDKITTDEMIKRLKMVVKTFMDMDQDSEDEKQQYLPLALHLASEFFLRNPNKDVRLLVACCLADIFRIYAPEAPYTSHDKLKDIFLFITRQLKGLEDTKSPQFNRYFYLLENLAWVKSYNICFELEDCNEIFIQLFRTLFSVINNSHNKKVQMHMLDLMSSIIMEGDGVTQELLDSILINLIPAHKNLNKQSFDLAKVLLKRTVQTIEACIANFFNQVLVLGRSSVSDLSEHVFDLIQELFAIDPHLLLSVMPQLEFKLKSNDGEERLAVVRLLAKLFGSKDSDLATQNRPLWQCFLGRFNDIHVPVRLESVKFASHCLMNHPDLAKDLTEYLKVRSHDPEEAIRHDVIVTIITAAKRDLALVNDQLLGFVRERTLDKRWRVRKEAMMGLAQLYKKYCLHGEAGKEAAEKVSWIKDKLLHIYYQNSIDDKLLVEKIFAQYLVPHNLETEERMKCLYYLYASLDPNAVKALNEMWKCQNMLRSHVRELLDLHKQPTSEANCSAMFGKLMTIAKNLPDPGKAQDFVKKFNQVLGDDEKLRSQLELLISPTCSCKQADICVREIARKLANPKQPTNPFLEMVKFLLERIAPVHIDSEAISALVKLMNKSIEGTADDEEEGVSPDTAIRSGLELLKVLSFTHPTSFHSAETYESLLQCLRMEDDKVAEAAIQIFRNTGHKIETDLPQIRSTLIPILHQKAKRGTPHQAKQAVHCIHAIFTNKEVQLAQIFEPLSRSLNADVPEQLITPLVSLGHISMLAPDQFASPMKSVVANFIVKDLLMNDRSTGEKNGKLWSPDEEVSPEVLAKVQAIKLLVRWLLGMKNNQSKSANSTLRLLSAMLVSEGDLTEQKRISKSDMSRLRLAAGSAIMKLAQEPCYHEIITPEQFQLCALVINDECYQVRQIFAQKLHKALVKLLLPLEYMAIFALCAKDPVKERRAHARQCLLKNISIRREYIKQNPMATEKLLSLLPEYVVPYMIHLLAHDPDFTRSQDVDQLRDIKECLWFMLEVLMTKNENNSHAFMKKMAENIKLTRDAQSPDESKTNEKLYTVCDVALCVINSKSALCNADSPKDPVLPMKFFTQPEKDFCNDKSYISEETRVLLLTGKPKPAGVLGAVNKPLSATGRKPYVRSTGTETGSNINVNSELNPSTGNRSREQSSEAAETGVSENEENPVRIISVTPVKNIDPVKNKEINSDQATQGNISSDRGKKRTVTAAGAENIQQKTDEKVDESGPPAPSKPRRGRRPKSESQGNATKNDDLNKPINKGRKRAAVGQESPGGLEAGNAKAPKLQDLAKKAAPAERQIDLQR
In the case of B1, the “amount of IFN-γ produced” value in assay [1] is “low”. For the same molecule, the “activity to directly kill the cancer cells” value in the assay with 14 types of cancer cells is reported as “no cancer cells were killed at all”.
